According to US10921324B2, “Compositions and methods related to the methylation of histone H1.0 protein” (Aelan Cell Technologies, Inc., priority 2016, dated 2021):
Ends that are not written are not given here.

Biological target: T1, GLP methyltransferase (Homo sapiens, UniProt Q9H9B1)
T1 construct: purchased Cayman Chemical 10755
T1 sequence (Q9H9B1 1-1298): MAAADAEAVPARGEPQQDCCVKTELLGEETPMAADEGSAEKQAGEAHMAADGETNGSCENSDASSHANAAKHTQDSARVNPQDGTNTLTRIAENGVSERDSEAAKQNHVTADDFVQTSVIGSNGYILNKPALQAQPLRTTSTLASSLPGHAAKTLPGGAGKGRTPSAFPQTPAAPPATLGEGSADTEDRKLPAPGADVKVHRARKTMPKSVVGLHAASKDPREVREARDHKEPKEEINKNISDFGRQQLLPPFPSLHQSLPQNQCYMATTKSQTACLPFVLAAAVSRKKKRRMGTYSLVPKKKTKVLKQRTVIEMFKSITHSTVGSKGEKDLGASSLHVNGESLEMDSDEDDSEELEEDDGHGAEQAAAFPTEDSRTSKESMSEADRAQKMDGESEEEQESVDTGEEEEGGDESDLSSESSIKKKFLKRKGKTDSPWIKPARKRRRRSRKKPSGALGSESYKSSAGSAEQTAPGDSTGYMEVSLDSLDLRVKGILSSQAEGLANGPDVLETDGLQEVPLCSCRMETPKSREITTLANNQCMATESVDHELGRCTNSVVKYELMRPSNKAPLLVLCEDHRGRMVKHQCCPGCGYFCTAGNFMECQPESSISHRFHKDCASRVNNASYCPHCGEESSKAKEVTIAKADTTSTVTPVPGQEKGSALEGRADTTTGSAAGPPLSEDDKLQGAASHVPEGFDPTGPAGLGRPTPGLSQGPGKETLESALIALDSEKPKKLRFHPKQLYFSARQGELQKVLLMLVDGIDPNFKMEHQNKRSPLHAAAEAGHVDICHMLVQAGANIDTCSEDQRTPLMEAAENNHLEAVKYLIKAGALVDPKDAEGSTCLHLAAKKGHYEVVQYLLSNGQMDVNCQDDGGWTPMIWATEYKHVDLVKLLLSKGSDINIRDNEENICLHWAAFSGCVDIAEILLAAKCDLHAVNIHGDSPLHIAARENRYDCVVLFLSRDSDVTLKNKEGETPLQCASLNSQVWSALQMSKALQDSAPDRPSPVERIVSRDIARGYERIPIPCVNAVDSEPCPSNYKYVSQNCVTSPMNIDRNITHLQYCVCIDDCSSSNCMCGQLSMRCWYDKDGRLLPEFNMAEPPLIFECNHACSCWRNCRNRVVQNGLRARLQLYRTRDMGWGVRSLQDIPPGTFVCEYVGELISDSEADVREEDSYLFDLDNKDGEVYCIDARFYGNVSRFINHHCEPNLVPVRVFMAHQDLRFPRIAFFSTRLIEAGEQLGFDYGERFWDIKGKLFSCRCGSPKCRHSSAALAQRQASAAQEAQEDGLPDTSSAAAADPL
Assay: In vitro methylation of unmodified H1.0 peptide with GLP, products by LC-MS
Type: biochemical
Conditions: LC-MS spectral counts; 10U GLP, 3.2 mM S-Adenosyl-L-Methionine, 37° C. 1 hour
Procedure: In order to identify the precise sites of methylation by G9A and GLP methyltransferases on histone H1.0, in vitro methylation assays were performed and subsequently analyzed by Liquid Chromatography and High-resolution Mass Spectrometry (LC-MS) analysis. Methylation reactions were set up using either G9A methyltransferase (NEB, M0235S, Lot #0031201) or GLP methyltransferase (Cayman Chemical, 10755). The methyl donor in each reaction was unlabeled S-Adenosyl-L-Methionine (NEB, B9003S). […]
For the Liquid Chromatography and High-resolution Mass Spectrometry (LC-MS) analysis, samples were prepared as described above and about 1 μg o the product was injected onto a Thermo Scientific Easy nLC system configured with a 10 cm×100 um trap column and a 25 cm×100 um ID resolving column. […] This ensured optimal full-scan data for quantification. […]
Protein identification was performed using Thermo Scientific Proteome Discoverer version 1.4 (including Sequest and Percolator algorithms) using RefSeqHuman sequence database. […] Protein quantification was performed using Pinpoint version 1.4 software. The Pinpoint quantification workflow included importing the Proteome Discoverer .msf files as spectral libraries. Identified peptides were subsequently quantified in MS .raw files using the Pinpoint peak finding, chromatographic alignment and area calculation algorithms. […]

AKPVKASKPKKAKPVKPK (not fully specified (N-terminus); listed as Homo sapiens) [unmethylated H1.0 peptide, unmodified H1.0 peptide substrate for in vitro methylation]
H1.0K180 dimethylated, % of all peptides: 96.6%
